Biological target: cGAS (human, UniProt Q8N884 1-522)
Test: EMSA; 5-10 uM cGAS, 50 fmol DNA, 1 mM Mg2+; 10 mM Hepes-NaOH pH 7.5, 100 mM NaCl, 1 mM DTT, 1 mM MgCl2, 20 ug/mL BSA, 25-50 fmol DNA, 25 C 30 min; native PAGE 5% or 6% (Methods), 0.5x TBE
Conditions: protein: recombinant; tags: His (pET28a-His-hcGAS); label: 32P

Sequence of cGAS (Q8N884 whole entry): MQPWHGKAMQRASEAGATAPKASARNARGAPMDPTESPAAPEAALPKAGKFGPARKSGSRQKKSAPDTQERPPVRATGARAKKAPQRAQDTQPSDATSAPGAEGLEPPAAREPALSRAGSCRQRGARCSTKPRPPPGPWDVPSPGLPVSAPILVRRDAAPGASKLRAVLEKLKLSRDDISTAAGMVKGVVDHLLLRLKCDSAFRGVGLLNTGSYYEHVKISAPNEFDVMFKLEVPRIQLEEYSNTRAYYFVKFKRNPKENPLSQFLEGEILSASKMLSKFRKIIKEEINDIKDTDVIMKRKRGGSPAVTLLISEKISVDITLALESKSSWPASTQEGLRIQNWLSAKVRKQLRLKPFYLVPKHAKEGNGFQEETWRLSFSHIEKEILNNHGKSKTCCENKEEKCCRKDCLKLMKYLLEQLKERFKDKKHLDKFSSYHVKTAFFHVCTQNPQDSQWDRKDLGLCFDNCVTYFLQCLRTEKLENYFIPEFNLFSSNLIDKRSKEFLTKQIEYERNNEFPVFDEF

B1: ISRE 45-bp dsDNA (dsDNA)
DNA 1: TACAGATCTACTAGTGATCTATGACTGATCTGTACATGATCTACACCAAAGAGCATTGTAGATCATGTACAGATCAGTCATAGATCACTAGTAGATCTGTA
DNA 2: TACAGATCTACTAGTGATCTATGACTGATCTGTACATGATCTACAATGCTCTTTGGTGTAGATCATGTACAGATCAGTCATAGATCACTAGTAGATCTGTA
B1: binds.
